From doi:10.1101/2022.10.19.512833 (bioRxiv, 2022)

Biological target: T1, human TSG101 UEV (1-145) domain (human, UniProt Q99816 1-145)
T1 sequence (looked up): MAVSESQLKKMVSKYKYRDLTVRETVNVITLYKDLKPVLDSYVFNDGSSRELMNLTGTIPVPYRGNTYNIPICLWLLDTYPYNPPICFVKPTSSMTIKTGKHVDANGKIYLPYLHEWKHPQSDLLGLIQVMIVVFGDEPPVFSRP
Experiment: fluorescence polarisation

| Binder | Kd |
| --- | --- |
| APQGLIPTAPPADPAA [GAG (HIV-2) peptide, residues 450-465, unlabeled] | 6 µM |
| LQSRPEPTAPPEESFR (peptide, UniProt P04591 449-464, looked up) [GAG (HIV-1) residues 449-464, unlabeled peptide] | 15.3 µM |
